From patent publication US10400022B2, “Neuropilin-1 specific binding peptide, fusion protein fused with same, and use thereof” (AJOU UNIVERSITY INDUSTRY-ACADEMIC COOPERATION FOUNDATION, priority 2015, dated 2019)
Where no end group is shown, it is not given here.

Legend:
[1] = tested on: E-cadherin; experiment: Western blot of E-cadherin in FaDu cells; type: cell-based; conditions: human head and neck cancer FaDu cells
Method: (§1) Specifically, 5×10^5 HUVEC cells were seeded into each well of a 6-well plate and incubated for 24 hours, and then treated with 0.1 μM of the fusion protein of the antibody heavy-chain constant Fc region and the selected peptide that binds specifically to NRP1, for 10 minutes, followed by Western blot analysis. After SDS-PAGE, the gel was transferred to a PVDF membrane, and detection was performed using primary antibodies (SantaCruz) that recognize VE-cadherin and β-actin and using HRP-conjugated secondary antibody (SantaCruz), and analysis was performed using ImageQuant LAS4000 mini (GE Healthcare).
In order to examine whether the Fc-TPP1, Fc-TPP8 and Fc-TPP11 fusion proteins also have an enhanced ability to penetrate cancer cells, a change in E-cadherin in human head and neck cancer FaDu cells expressing NRP1 was analyzed by Western blot analysis under the same conditions as described above.

[2] = tested on: VE-cadherin; experiment: Western blot of VE-cadherin in HUVEC; type: cell-based, human
Method: as §1, with “and then treated with 0.1 μM of the fusion protein of the antibody heavy-chain” left out

[3] = target: T1, NRP1-b1b2 (273-586) protein (Homo sapiens, UniProt O14786); experiment: Competitive ELISA with VEGF165A / RPARPAR on NRP1-b1b2; type: binding
T1 construct: made in house
Method: In order to evaluate competitive binding of the TPP11 peptide, which binds specifically to NRP1 without binding to NRP2, and VEGF165A and a RPARPAR peptide, known to bind to the arginine-binding pocket of the NRP1-b1 domain, competitive ELISA was performed.
Specifically, binding NRP1-b1b2 (273-586) protein to each well of a 96-well EIA/RIA plate or a 96-well EIA/RIA black plate (COSTAR Corning In., USA) at room temperature for […], is followed by washing three times with 0.1% PBST (0.1% Tween20, pH 7.4, 137 mM NaCl, 10 mM Phosphate, 2.7 mM KCl, SIGMA-ALDRICH co., USA) for 10 minutes. After binding with 5% skim milk (5% Skim milk, pH 7.4, 137 mM NaCl, 10 mM Phosphate, 2.7 mM KCl, SIGMA-ALDRICH co., USA) for 1 hour, each well was washed three times with 0.1% PBST (0.1% Tween20, pH 7.4, 137 mM NaCl, 10 mM Phosphate, 2.7 mM KCl, SIGMA-ALDRICH co., USA) for 10 minutes. […] Then, each mixture was incubated with AP-conjugated anti-human antibody (alkaline phosphatase-conjugated anti-human mAb, Sigma, USA), and then reacted with pNPP ([…], SIGMA-ALDRICH co., USA), and the absorbance at 405 nm was measured.

[4] = tested on: A431 cells expressing neuropilin-1; experiment: Immunohistochemistry of tumor tissue penetration in A431 xenograft; type: in vivo, Balb/c nude mice; conditions: 10 mg/kg intravenously, 15 hours after injection
Method: At 15 hours after injection, the tumor was extracted from the mice and subjected to immunohistochemistry. The extracted tumor tissue was sectioned to a thickness of 20 μm by a frozen-section method, and the blood vessels were stained with the primary antibody CD31 antibody (BD Pharmingen) and TRITC (red fluorescence)-labeled secondary antibody that recognizes the same. In addition, to observe the distribution of the Fc-TPP1, Fc-TPP8 and Fc-TPP11 fusion proteins in the tissue, an FITC (green fluorescence)-labeled antibody that recognizes Fc was used.

[5] = tested on: VEGF165A-induced angiogenesis; experiment: In vivo matrigel plug assay; set-up: species or system Balb/c nude mice; conditions: 200 μg in matrigel plug with A431 cells, 8 days
Method: Additionally, in order to examine anti-angiogenesis activity in vivo, a matrigel plug assay was performed. […] After 8 days, the matrigel plug was extracted, imaged (FIG. 15(B)), and then sectioned to a thickness of 20 μm by a frozen-section method, and subjected to immunohistochemistry. The blood vessels were stained with the primary antibody CD31 and a TRITC (red fluorescence)-labeled secondary antibody recognizing the same, and the density of the blood vessels was measured.

[6] = target: T2, NRP1 displayed on the human umbilical vein endothelial cell (HUVEC) surface (Homo sapiens, UniProt O14786); experiment: Confocal co-localization with NRP1 on HUVEC surface; type: cell-based; conditions: 1 μM, 30 minutes, 4° C., confocal microscopy
T2 construct: endogenous in cells; host or cells: HUVEC
Method: In an experiment for biological identification of the peptides that binds specifically to NRP1, human umbilical vein endothelial cells (HUVECs) overexpressing NRP1 were used.
Specifically, 5×10^4 HUVEC cells were added to each well of a 24-well plate and incubated in 0.5 ml of EGM2 (Endothelial growth medium, Promocell) medium for 24 hours under the conditions of 5% CO2 and 37° C. […] Next, the medium was removed, and each well was washed with cold PBS. Then, the fusion protein wherein the selected peptide that binds specifically to NRP1 is fused to the antibody heavy-chain constant region was stained with FITC (green fluorescence)-labeled antibody (Sigma) that specifically recognizes Fc, and NRP1 was stained with primary antibody (Abcam) that recognizes NRP1 and with TRITC (red fluorescence)-labeled secondary antibody. The nucleus was stained (blue fluorescence) with DAPI and analyzed by confocal microscopy.

[7] = tested on: human umbilical vein endothelial cells (HUVECs); experiment: Transwell assay of penetration of vascular endothelial cells (dextran-FITC); type: cell-based; conditions: 1 μM for 30 minutes (VEGF165A about 1.3 nM); dextran-FITC fluorescence in lower chamber
Method: Specifically, 5×10^4 human umbilical vein endothelial cells (HUVECs) were seeded into the upper chamber of a transwell plate (Corning) and incubated in EGM2 for 3 days under the conditions of 37° C. and 5% CO2. […] Then, 50 μl of dextran-FITC (Sigma) was added to the upper chamber. After 30 minutes, based on the principle according to which the fluorescent substance would be observed when penetration into the vascular endothelial cells was increased, the medium was sampled from the lower chamber and the fluorescence thereof was measured.

[8] = target: T3, biotinylated NRP1-b1b2 (Homo sapiens, UniProt O14786); experiment: FACS of yeast surface-displayed clones binding biotinylated NRP1-b1b2; conditions: yeast surface display, compared with A22p
T3 construct: biotin (chemical label on amines, Sulfo-NHS-LC-biotin); made in house
Description: […] In addition, in the MACS and FACS processes, non-biotinylated NRP2-b1b2 was used as a competitive protein for biotinylated NRP1-b1b2 at a 10-fold higher concentration, and individual clones that bind to NRP1-b1b2 were selected.

[9] = target: T1, NRP1-b1b2 (273-586) protein; experiment: ELISA binding to NRP1-b1b2; conditions: synthetic peptide not fused to Fc, 100 nM
Method: The binding affinities of purified Fc-TPP1, Fc-TPP8 and Fc-TPP11 fusion proteins for the b1b2 domains of NRP1 and NRP2 were analyzed by ELISA (Enzyme Linked Immunosorbent Assay).
To examine specificity for NRP1, the control VEGF165A and Fc, A22p, and each of the fusion proteins wherein the selected peptide that binds specifically to NRP1 is fused to the antibody heavy-chain constant Fc region, was biotinylated using a NHS-biotin kit (SIGMA-ALDRICH co., USA).
1 μg of each of NRP1-b1b2 (273-586) protein, NRP2-b1b2 (275-595) protein and the control group VEGFR2 (46-753) was immobilized in each well of a 96-well EIA/RIA plate (COSTAR Corning In., USA) at room temperature for 1 hour, and then washed three times with 0.1% PBST (0.1% Tween20, pH 7.4, 137 mM NaCl, 10 mM Phosphate, 2.7 mM KCl, SIGMA-ALDRICH co., USA) for 10 minutes. After binding with 5% skim milk (5% Skim milk, pH 7.4, 137 mM NaCl, 10 mM Phosphate, 2.7 mM KCl, SIGMA-ALDRICH co., USA) for 1 hour, each well was washed three times with 0.1% PBST (0.1% Tween20, pH 7.4, 137 mM NaCl, 10 mM Phosphate, 2.7 mM KCl, SIGMA-ALDRICH co., USA) for 10 minutes. […] Each well was bound with AP-conjugated anti-biotin antibody (alkaline phosphatase-conjugated anti-biotin mAb, Sigma, USA), and then reacted with pNPP ([…], SIGMA-ALDRICH co., USA), and the absorbance at 405 nm was measured.

For “Fc-A22p: control Fc fusion of A22p peptide (HTPGNSNKWKHLQENKKGRPRR) that binds to both NRP1 and NRP2 (also: fused to Fc, not in chain)”, which “change in E-cadherin” value [1] is on record?
The value was “induced a decrease in E-cadherin”.

And the “change in VE-cadherin at 1 μM” value ([2]; 1 μM)?
Its value is “VE-cadherin significantly decreased”.

What about the “change in VE-cadherin” value ([2]; 10 minutes) of the same substance?
Its value is “a decrease in VE-cadherin was observed”.

What about the “binding to NRP1-b1b2 competitively with VEGF165A” value ([3]; VEGF165A 25 nM to 0.02 nM) of the same substance?
The value was “overlapped a portion of NRP1 to which VEGF165A did bind”.

And the “tumor tissue accumulation and penetration” value [4]?
The value was “selectively reached tumor tissue”.

What about the “VEGF165A-induced angiogenesis (density of blood vessels, CD31)” value [5] of the same substance?
Its value is “inhibited VEGF165A-induced angiogenesis in living mice”.

What about the “binding to NRP1 on the HUVEC cell surface” value [6] of the same substance?
Its value is “did bind to NRP1 on the HUVEC cell surface”.

And the “ability to penetrate vascular endothelial cells” value [7]?
Its value is “had an increased ability to penetrate vascular endothelial cells”.

“TPP1: NRP1-targeting peptide HTPGNSNQFVLTSTRPPR, SEQ ID NO: 1 (Synthetic construct (TPP1))” was tested. Which “binding to 100 nM biotinylated NRP1-b1b2 (mean fluorescence intensity)” value (“binding to 100 nM biotinylated NRP1-b1b2” below) [8] did it give?
The value was “showed higher mean fluorescence intensities”.

For “TPP8: NRP1-targeting peptide HTPGIATRTPR, SEQ ID NO: 2 (Synthetic construct (TPP8))”, which “binding to 100 nM biotinylated NRP1-b1b2” value [8] is on record?
The value was “showed higher mean fluorescence intensities”.

How did the “binding to 100 nM biotinylated NRP1-b1b2” value [8] turn out when “TPP11: NRP1-targeting peptide HTPGNSKPTRTPRR, SEQ ID NO: 3 (Synthetic construct (TPP11))” was run?
Its value is “showed higher mean fluorescence intensities”.

And the “lower affinity than Fc-TPP11 for NRP1-b1b2 protein” value [9]?
The value was “at least 100 fold”.

What about the “competitive binding of synthesized peptide with RPARPAR peptide and VEGF165A” value [3] of the same substance?
Its value is “inhibited the binding of the RPARPAR peptide and VEGF165 to NRP1”.
